One assay concerns HUVEC cells. Briefly: γH2AX DNA damage response in HUVEC cells (Western blot). Type of assay: cell-based. The procedure:
(2) The transfection system of a 3.5 cm petri dish was prepared as follows: 1 μl of siRNA Oligo/Red (concentration of the original solution was 20 μM) was added to an EP tube containing 250 μl of pure Opti-MEM and mixed, and 1.5 μl of RNAiMAX (transfection Reagent) was added to the flow tube containing 250 μl of pure Opti-MEM and mixed, and then all the liquid in the EP tube was added to the flow tube and mixed, and allowed to stand at room temperature for 15 min.
(3) The prepared transfection system was added to a 3.5 cm culture dish, and the cells were cultured for 24-48 h, then the samples were collected and the total cell protein was extracted, and the knockdown effect of the gene was identified by Western Blotting.
(3) Add 150 μl of total protein lysate to each cell sample to make the lysate fully contact with the cells, scrape off the cell lysate with a scraper, collect it into a pre-cooled EP tube, and take an ice bath for 15 min.
(§1) Protein electrophoresis gels are double-layered gels, including an upper stacking gel and a lower separating gel. The concentration of the stacking gel is 5%, and the concentration of the separating gel is determined according to the molecular weight of the target protein. In this study, large molecular weight proteins (LRP5/6, β-catenin, β-arrestin1/2) used 8%-5% double-layer gel, and small molecular weight proteins (γH2AX, p53, p21, Bcl-2, Bax, Cleaved Caspase-3) used 12%-5% double-layer gel. In addition, the number of wells (10 wells or 15 wells) and thickness (1 mm or 1.5 mm) of the preparation gel were selected according to the number and volume of protein samples loaded. The gel formulation is shown in the experimental material section, and the preparation steps are as follows: […]

In the next assay the test system is β-arrestin1/2. Briefly: β-arrestin1/2 translocation in HUVEC cells (Western blot). Format: cell-based. The note with it: BIM-46187 pretreatment 1 μM for 30 min. The procedure:
(5) Add 100 μl (cell) or 200 μl (tissue) A solution to each sample, and resuspend the cell pellet with a pipette to completely disperse the pellet. The tissue pellet should be fully homogenized on ice with a homogenizer, and the ice bath should be used for 15 min.
(10) Add 50 μl (cells) or 100 μl (tissue) B solution to each sample, resuspend the pellet in Vortex at the highest speed for 10 s, ice bath for 10 min, and repeat twice to fully extract membrane proteins.
as §1

In another assay the test system is wild-type mice heart. Briefly: Local injection of Dkk1 protein into the heart combined with MDC or BIM-46187. Format: in vivo, mouse. How it is done: In the experiment of local injection of Dkk1 purified protein into the heart combined with MDC intervention, 10-week-old wild-type male mice were selected, the left chest was depilated, and intraperitoneal injection of MDC (diluted in sterile PBS, 10 mg/kg) or the corresponding volume of DMSO (diluted in sterile PBS) and injected at the same time every day thereafter. After 1 h of MDC intervention, cardiac Dkk1 protein injection was performed. The mice were given continuous inhalation anesthesia with 1% isoflurane and oxygenated with a ventilator, and then the fourth intercostal space near the sternum was opened to expose the heart. Using a 200 μl microsyringe, Dkk1 (10 μg of Dkk1 per heart, dissolved in 30 μl PBS) or an equal volume of PBS was injected locally at three sites in the heart. Of these, two sites are on the border around the left ventricle, and one site enters the myocardium of the left ventricle. After the injection, the wound was sutured, the anesthesia was removed, and the mice were awake. After MDC was continuously intervened for 2 days, the mice were anesthetized and the materials were collected.
In addition to injecting Dkk1 protein alone into the heart, we also need to perform experiments of local injection of Dkk1 combined with BIM-46187 into mouse hearts. According to the experimental grouping, it was divided into cardiac injections of four different solutions, including PBS, Dkk1, BIM-46187, and a mixture of Dkk1 and BIM-46187. The dosage of Dkk1 per heart is 10 μg, and the dosage of BIM-46187 is 2.4 ng, diluted with 30 μl PBS and then injected into the heart. The specific operation steps are the same as above. After the injection, the wound was sutured, the anesthesia was removed, and the mice were awake. Two days after the injection, the mice were anesthetized and the materials were collected.

The subject of a further assay is CT26 tumor-bearing mice. Briefly: Tumor cachexia in CT26 tumor-bearing mice: tumor-free body weight, muscle weight, muscle membrane proteins. Type of assay: in vivo, mouse.
The subject of the next assay is LRP6 and Kremen2. Briefly: Intramuscular injection of Dkk1, Western blot of membrane LRP6 and Kremen2. Format: in vivo, mouse. Conditions: simultaneous injection with Dkk1. How it is done:
Wild-type mice and β-arrestin2+/−KO mice were injected into the left quadriceps (0.25 mg/kg) and an equal volume of PBS was injected into the right leg as controls. MDC (10 mg/kg), IGFBP-4/H95P (1.7 mg/kg) or PBS were injected in combination with Dkk1 as a control to observe the effects of drugs on Dkk1-induced signal transduction. After 48 hours, the mice were sacrificed, and the left and right quadriceps were taken to measure the […].
Membrane proteins were extracted according to the instructions of Membrane Protein Extraction Kit (Sangon Biotech, China). Western blot analysis omitted. Antibodies for WB analysis were purchased from Cell Signaling Technology and Proteintech.
In general terms: Immunoblotting shows a protein as a band on a membrane.

Entries after “also recorded” stand apart in the source; their conditions may differ.

These results are taken from patent US20220349876A1, “USE OF DKK1 INHIBITOR IN PREVENTION AND/OR TREATMENT OF TUMOR CACHEXIA AND DISEASES ASSOCIATED WITH DIABETES” (SHANGHAI DONGTSU BIOSCIENCES CO., LTD., priority 2019, published 2022).

`N[C@@H](CSSC[C@H](N)C(=O)N1CCn2cc(-c3ccccc3)nc2[C@@H]1CC1CCCCC1)C(=O)N1CCn2cc(-c3ccccc3)nc2[C@@H]1CC1CCCCC1` [BIM-46187]: in the assay on HUVEC cells (BIM-46187 pretreatment 1 μM, 30 min), the “Dkk1-induced γH2AX activation” value is recorded as “inhibited”. Moreover, in the assay on β-arrestin1/2, the “Dkk1-induced translocation of β-arrestin1/2” value was “able to prevent Dkk1-induced translocation of β-arrestin1/2”. Further, in the assay on wild-type mice heart (Dkk1 intracardiac injection with MDC or BIM-46187), the “Dkk1-induced cardiac β-arrestin1/2 translocation” value is given as “inhibited; also recorded: significantly prevent Dkk1 direct endocytosis of LRP5/6-induced cardiac β-arrestin1/2 translocation changes”. Moreover, the “Dkk1-induced cardiac changes (LRP5/6, γH2AX, p53, p21)” value with wild-type mice heart (Dkk1 intracardiac injection with MDC pretreatment or combined with BIM-46187) was “effectively inhibit Dkk1-induced cardiac injury; also recorded: significantly prevent”.

B1: LRP6N: soluble protein of the extracellular segment of LRP6 (LRP6 ectodomain) (protein, UniProt O75581 20-1370, looked up)
extracellular domain: APLLLYANRRDLRLVDATNGKENATIVVGGLEDAAAVDFVFSHGLIYWSDVSEEAIKRTEFNKTESVQNVVVSGLLSPDGLACDWLGEKLYWTDSETNRIEVSNLDGSLRKVLFWQELDQPRAIALDPSSGFMYWTDWGEVPKIERAGMDGSSRFIIINSEIYWPNGLTLDYEEQKLYWADAKLNFIHKSNLDGTNRQAVVKGSLPHPFALTLFEDILYWTDWSTHSILACNKYTGEGLREIHSDIFSPMDIHAFSQQRQPNATNPCGIDNGGCSHLCLMSPVKPFYQCACPTGVKLLENGKTCKDGATELLLLARRTDLRRISLDTPDFTDIVLQLEDIRHAIAIDYDPVEGYIYWTDDEVRAIRRSFIDGSGSQFVVTAQIAHPDGIAVDWVARNLYWTDTGTDRIEVTRLNGTMRKILISEDLEEPRAIVLDPMVGYMYWTDWGEIPKIERAALDGSDRVVLVNTSLGWPNGLALDYDEGKIYWGDAKTDKIEVMNTDGTGRRVLVEDKIPHIFGFTLLGDYVYWTDWQRRSIERVHKRSAEREVIIDQLPDLMGLKATNVHRVIGSNPCAEENGGCSHLCLYRPQGLRCACPIGFELISDMKTCIVPEAFLLFSRRADIRRISLETNNNNVAIPLTGVKEASALDFDVTDNRIYWTDISLKTISRAFMNGSALEHVVEFGLDYPEGMAVDWLGKNLYWADTGTNRIEVSKLDGQHRQVLVWKDLDSPRALALDPAEGFMYWTEWGGKPKIDRAAMDGSERTTLVPNVGRANGLTIDYAKRRLYWTDLDTNLIESSNMLGLNREVIADDLPHPFGLTQYQDYIYWTDWSRRSIERANKTSGQNRTIIQGHLDYVMDILVFHSSRQSGWNECASSNGHCSHLCLAVPVGGFVCGCPAHYSLNADNRTCSAPTTFLLFSQKSAINRMVIDEQQSPDIILPIHSLRNVRAIDYDPLDKQLYWIDSRQNMIRKAQEDGSQGFTVVVSSVPSQNLEIQPYDLSIDIYSRYIYWTCEATNVINVTRLDGRSVGVVLKGEQDRPRAVVVNPEKGYMYFTNLQERSPKIERAALDGTEREVLFFSGLSKPIALALDSRLGKLFWADSDLRRIESSDLSGANRIVLEDSNILQPVGLTVFENWLYWIDKQQQMIEKIDMTGREGRTKVQARIAQLSDIHAVKELNLQEYRQHPCAQDNGGCSHICLVKGDGTTRCSCPMHLVLLQDELSCGEPPTCSPQQFTCFTGEIDCIPVAWRCDGFTECEDHSDELNCPVCSESQFQCASGQCIDGALRCNGDANCQDKSDEKNCEVLCLIDQFRCANGQCIGKHKKCDHNVDCSDKSDELDCYPTEEPAPQA
modifications: extracellular domain
For the molecule B1, the “γH2AX signaling enhanced by H2O2 in the presence of Dkk1” value in the assay on HUVEC cells (Dkk1 then H2O2 50 μM) is reported as “significantly attenuated”. For the same molecule, the “H2O2-activated γH2AX signaling in control and β-catenin-knockdown cells” value in the assay on HUVEC cells (H2O2 50 μM) is “no effect”. Also, in the assay with HUVEC cells (H2O2 50 μM, LRP6N pretreatment), the “γH2AX signaling in MESD knockdown cells enhanced by H2O2” value is recorded as “significantly attenuats this change” and the “γH2AX signaling of LRP5/6 knockdown cells further activated by H2O2” value is listed as “significantly attenuated”. In addition, the “H2O2-induced γH2AX activation” value with HUVEC cells (H2O2 50 μM, without Dkk1) is reported as “does not prevent H2O2-induced γH2AX activation”. Also, the “γH2AX upregulation induced by knockdown of LRP5/6” value with HUVEC cells (LRP6N pre-added to culture medium) was “reverses cellular DNA damage induced by knockdown of LRP5/6; also recorded: significantly attenuated”. Also, the “γH2AX response by the substance itself” value in the assay on HUVEC cells (no Dkk1, no H2O2) was “does not elicit γH2AX responses”. Also, the “Dkk1-induced γH2AX activation” value with HUVEC cells (pretreatment with MDC or LRP6N protein) was “inhibits Dkk1-induced γH2AX activation”.

B2: IGFBP4/H95P: recombinant mutant IGFBP4/H95P protein, which lost its IGF-binding ability, can bind to LRP6 on the membrane and prevent Dkk1 signaling (protein, UniProt P22692 22-258, looked up, variant H95P)
Insulin-like growth …: DEAIHCPPCSEEKLARCRPPVGCEELVREPGCGCCATCALGLGMPCGVYTPRCGSGLRCYPPRGVEKPLHTLMPGQGVCMELAEIEAIQESLQPSDKDEGDHPNNSFSPCSAHDRRCLQKHFAKIRDRSTSGGKMKVNGAPREDARPVPQGSCQSELHRALERLAASQSRTHEDLYIIPIPNCDRNGNFHPKQCHPALDGQRGKCWCVDRKTGVKLPGGLEPKGELDCHQLADSFRE
In the case of B2, the “loss of body weight and muscle weight” value with CT26 tumor-bearing mice (listed as IGFBP4) was “reverse tumor-induced loss of tumor-free body weight and muscle atrophy”; with CT26 tumor-bearing mice (listed as IGFBP-4/H95P) it was “completely prevents the decrease in body weight and muscle weight”. Further, the “Dkk1-induced endocytosis / downregulation of membrane LRP6 and Kremen2” value in the assay on LRP6 and Kremen2 is listed as “inhibit downregulation of membrane LRP6 expression induced by Dkk1”.
